Laboratory results reported in patent publication US20170081400A1 (CEPHALON, published 2017).
Blank lines part the entries; values can stand above or below the binder they belong to.

Key:
[1] = target: T1, human TL1A extracellular domain with N-terminal HIS and FLAG tag (human, UniProt O95150 72-251); assay: SPR Run 6, purified Ab captured on Protein A, TL1A 5 ug/mL, timepoint 170
T1 construct: the whole entry is named
T1 sequence: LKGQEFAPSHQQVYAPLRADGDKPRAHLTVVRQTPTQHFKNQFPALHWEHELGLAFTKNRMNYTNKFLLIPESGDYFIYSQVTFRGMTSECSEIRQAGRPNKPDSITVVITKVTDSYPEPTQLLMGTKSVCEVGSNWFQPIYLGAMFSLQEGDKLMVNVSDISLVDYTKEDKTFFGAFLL
From the text: (§1) 1.5. Antibody expression and antigen binding as determined by SPR. Using a CM5 sensor chip (GE Healthcare) Protein A (Pierce) was coupled to the chip surface using an amine coupling kit (GE Healthcare). Protein A was coupled on flow cell 1 and 2 (or alternatively 3 and 4) using a BIACORE® T200. […] The amount of supernatant or purified protein (as well as the concentration) injected during the capture stage varied between runs and is specified in the header of the Tables 3-11. At the end of injection of the supernatant or purified antibody the change in response units was measured. This value was reported as Capture Level in Tables 3-11. […] The response units were measured prior to the end of the dissociation phase. […] The sensorgrams were double referenced (flow cell 2 is subtracted from flow cell 1 and a buffer blank). As there were a large number of antibody variants to screen, these were screened across different runs (Tables 3-11). […] A summary of the conditions used in each run is below:
(§2) 2.1. […] In some experiment the antibodies were purified using Protein A chromatography (See 1.4) and purified antibodies were used in BIACORE® (GE Healthcare) experiments.

[2] = target: T1, human TL1A extracellular domain with …; assay: SPR Run 6, purified Ab captured on Protein A, TL1A 5 ug/mL, timepoint 44
From the text: as §1, §2

[3] = target: T2, human TL1A extracellular domain with N-terminal HIS and FLAG tag (human) (UniProt O95150); assay: cell-based or functional assay
T2 sequence: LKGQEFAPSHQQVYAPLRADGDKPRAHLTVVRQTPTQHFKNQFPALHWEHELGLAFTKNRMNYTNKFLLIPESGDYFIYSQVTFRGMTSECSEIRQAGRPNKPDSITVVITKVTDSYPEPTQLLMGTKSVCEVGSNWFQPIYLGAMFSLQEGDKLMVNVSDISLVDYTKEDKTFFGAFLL

[4] = target: T3, human TL1A extracellular domain with N-terminal HIS and FLAG tag (human, UniProt O95150 72-251); assay: cell-based or functional assay
T3 sequence: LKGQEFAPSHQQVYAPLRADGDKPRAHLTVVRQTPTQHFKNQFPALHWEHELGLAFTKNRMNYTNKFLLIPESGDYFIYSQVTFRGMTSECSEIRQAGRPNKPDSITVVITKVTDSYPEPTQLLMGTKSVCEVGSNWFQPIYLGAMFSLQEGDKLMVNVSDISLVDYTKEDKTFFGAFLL

[5] = target: T4, human TL1A extracellular domain with N-terminal HIS and FLAG tag (human, UniProt O95150 72-251); assay: SPR run 3; supernatant on Protein A; TL1A 10 ug/mL; timepoint 59
T4 construct: whole entry named. ~70 kDa fraction purified by gel filtration
T4 sequence: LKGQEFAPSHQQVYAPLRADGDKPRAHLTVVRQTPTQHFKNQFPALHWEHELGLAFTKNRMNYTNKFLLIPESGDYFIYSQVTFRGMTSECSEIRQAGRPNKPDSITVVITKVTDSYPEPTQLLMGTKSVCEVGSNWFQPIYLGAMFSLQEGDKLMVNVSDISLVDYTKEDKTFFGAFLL
From the text: as §1, §2

[6] = target: T4, human TL1A extracellular domain with …; assay: SPR run 3; supernatant on Protein A; TL1A 10 ug/mL; timepoint 590
From the text: as §1, §2

[7] = target: T3, human TL1A extracellular domain with …; assay: SPR Run 7, antibody on Protein A, TL1A 5 ug/mL, timepoint 44
Procedure, shortened: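 The capture level was the response change at the end of loading, which varied by run. Antigen response was read before dissociation ended, double-referenced against a reference flow cell and a buffer blank.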

[8] = target: T3, human TL1A extracellular domain with …; assay: SPR Run 7, antibody on Protein A, TL1A 5 ug/mL, timepoint 220
Procedure, shortened: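 CM5 chip, amine-coupled Protein A; capture of supernatant or purified Ab (load varies per run); capture level = ΔRU at end of injection; binding RU read late in dissociation; double referencing (reference cell + buffer blank).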

- TL1A Binding Level (Late) [1]: 136 RU
- TL1A Binding Level (Early) [2]: 148 RU
- Antibody IC50, TL1A induced caspase potency assay in TF-1 cells [3]: 0.03 µg/mL
- Fold improvement over 320-179, TL1A induced caspase potency assay in TF-1 cells [3]: 1 fold
B1: 320-477 (antibody, human IgG1, name in Kabat numbering, V domains shown)
VH: QVQLVQSGAEVKKPGASVKVSCKASGYTFTHYDINWVRQAPGQGLEWMGWLNPNSGNTGYAQKFQGRVTMTADRSTSTAYMELSSLRSEDTAVYYCAREVPETAAFEYWGQGTLVTVSS
VL: QSVLTQPPSVSGAPGQRVTISCTSSSSDIGAGLGVHWYQQLPGTAPKLLIEGYYNRPSGVPDRFSGSKSGTSASLTITGLLPEDEGDYYCQSYDGTLSALFGGGTKLTVLG
notes: human IgG1, lambda

- Antibody IC50, TL1A induced caspase potency assay in TF-1 cells [4]: 0.003 µg/mL
- Fold improvement over 320-179, TL1A induced caspase potency assay in TF-1 cells [4]: 3 fold
B2: 320-277 (antibody, human IgG1, V domains shown)
VH: QVQLVQSGAEVKKPGASVKVSCKASGYTFTSYDINWVRQAPGQGLEWMGWLNPNSGNTGYAQKFQGRVTMTADRSTSTAYMELSSLRSEDTAVYYCAREVPETAAFEYWGQGTLVTVSS
VL: QSVLTQPPSVSGAPGQRVTISCTSSSSDIGAGSGVHWYQQLPGTAPKLLIEGYYNRPSGVPDRFSGSKSGTSASLTITGLLPEDEGDYYCQSYDGTLSALFGGGTKLTVLG

- Antibody IC50, TL1A induced caspase potency assay in TF-1 cells [4]: 0.01 µg/mL
- Fold improvement over 320-179, TL1A induced caspase potency assay in TF-1 cells [4]: 4 fold
B3: 320-267 (antibody, human IgG1, V domains shown)
VH: QVQLVQSGAEVKKPGASVKVSCKASGYTFTSYDINWVRQAPGQGLEWMGWLNPNSGNTGYAQKFQGRVTMTADRSTSTAYMELSSLRSEDTAVYYCAREVPETAAFEYWGQGTLVTVSS
VL: QSVLTQPPSVSGAPGQRVTISCTSSSSDIGAALGVHWYQQLPGTAPKLLIEGYYNRPSGVPDRFSGSKSGTSASLTITGLLPEDEGDYYCQSYDGTLSALFGGGTKLTVLG

- Antibody IC50, TL1A induced caspase potency assay in TF-1 cells [4]: 0.01 µg/mL
- Fold improvement over 320-179, TL1A induced caspase potency assay in TF-1 cells [4]: 2 fold
B4: 320-278 (antibody, human IgG1, V domains shown)
VH: QVQLVQSGAEVKKPGASVKVSCKASGYTFTSYDINWVRQAPGQGLEWMGWLNPNSGNTGYAQKFQGRVTMTADRSTSTAYMELSSLRSEDTAVYYCAREVPETAAFEYWGQGTLVTVSS
VL: QSVLTQPPSVSGAPGQRVTISCTSSSSDIGAGQGVHWYQQLPGTAPKLLIEGYYNRPSGVPDRFSGSKSGTSASLTITGLLPEDEGDYYCQSYDGTLSALFGGGTKLTVLG

- TL1A Binding Level (Early) [5]: 83 RU
- TL1A Binding Level (Late) [6]: 18 RU
B5: 320-257 (antibody, human IgG1, name in Kabat numbering, V domains shown)
VH: QVQLVQSGAEVKKPGASVKVSCKASGYTFTSYDINWVRQAPGQGLEWMGWLNPNSGNTGYAQKFQGRVTMTADRSTSTAYMELSSLRSEDTAVYYCAREVPETAAFEYWGQGTLVTVSS
VL: QSVLTQPPSVSGAPGQRVTISCTSSSSDIWAGLGVHWYQQLPGTAPKLLIEGYYNRPSGVPDRFSGSKSGTSASLTITGLLPEDEGDYYCQSYDGTLSALFGGGTKLTVLG
notes: human IgG1, lambda

- TL1A Binding Level (Early) [7]: 77 RU
- Antibody IC50, TL1A induced caspase potency assay in TF-1 cells [4]: 0.004 µg/mL
- Fold improvement over 320-179, TL1A induced caspase potency assay in TF-1 cells [4]: 10 fold
- TL1A Binding Level (Late) [8]: 75 RU
B6: 320-547 (antibody, human IgG1, name in Kabat numbering, V domains shown)
VH: QVQLVQSGAEVKKPGASVKVSCKASGYTFTSYDINWVRQAPGQGLEWMGWLNPNSGYTGYAQKFQGRVTMTADRSTSTAYMELSSLRSEDTAVYYCAREVPETAAFEYWGQGTLVTVSS
VL: QSVLTQPPSVSGAPGQRVTISCTSSSSDIGAGLGVHWYQQLPGTAPKLLIEGYYNRPSGVPDRFSGSKSGTSASLTITGLLPEDEGDYYCQSYDGTLSALFGGGTKLTVLG
notes: full-length human IgG1, lambda

- TL1A Binding Level (Early) [5]: 30 RU
- TL1A Binding Level (Late) [6]: 10 RU
B7: 320-256 (antibody, human IgG1, name in Kabat numbering, V domains shown)
VH: QVQLVQSGAEVKKPGASVKVSCKASGYTFTSYDINWVRQAPGQGLEWMGWLNPNSGNTGYAQKFQGRVTMTADRSTSTAYMELSSLRSEDTAVYYCAREVPETAAFEYWGQGTLVTVSS
VL: QSVLTQPPSVSGAPGQRVTISCTSSSSDILAGLGVHWYQQLPGTAPKLLIEGYYNRPSGVPDRFSGSKSGTSASLTITGLLPEDEGDYYCQSYDGTLSALFGGGTKLTVLG
notes: human IgG1, lambda
